In PMC9094657, “A bioactive phlebovirus-like envelope protein in a hookworm endogenous virus” (Science Advances, 2022):

Experiments:
[1] = molecular target: Atlas GC ectodomain GPL binding pocket mutant R86A (Ancylostoma ceylanicum)
[2] = molecular target: Atlas GC ectodomain fusion loop mutant F136A/F137A (Ancylostoma ceylanicum)
[3] = molecular target: the molecule itself; assay: SEC-MALS; Superdex 200 (10/300), 293 K, 20 mM tris pH 7.8, 0.15 M NaCl, 5% glycerol, 0.5 mM TCEP; 100 ul at 1.6 to 2.5 mg/ml; self-association (trimer)

**Q.** Which stoichiometry N [1] does the source give for “Atlas GC ectodomain GPL binding pocket mutant R86A (domain or fragment)” here?
**A.** The stoichiometry N was 3.

**Q.** “Atlas GC ectodomain fusion loop mutant F136A/F137A (domain or fragment)” was tested. Which stoichiometry N [2] did it give?
**A.** Its stoichiometry N is 3.

B1: Atlas GC ectodomain (soluble ectodomain fragment of the phlebovirus GC-like Env of Ancylostoma ceylanicum Atlas virus, polyprotein residues 2330 to 2772) (domain or fragment, UniProt A0A016UZK2 2330-2772, looked up)
chain: CSEVISVTSTEEVCTIQENKETCTFNHATTITLQPLQQQTCLTLNDPEKRPMGMLTVKPDGIKFRCNKKIEFFTRDHQIVSESVHRCHRAGSCHSDECHHVKDTDALPEFSSEANSRPGYTSCSSSCGCITCDGCFFCEPSCLFHRLYAIPTTPTIYSIFYCPSWELEVDAEISLQREDETTTSTIRLLPGRTSTWNNIRFSLIGTIVPQLPILSSAFVTNGRQTSIVKPAYAGQLQSNSVGQLQCPNLEAAKQFECHFSRNLCTCTNALHKVSCTCYDGSVEDHMEALPLPQTSKNFLVFEKDRNIYAKTHVGSALQLHIVAQDLKITTVKHTSHCQVEASDLSGCYSCTSGASLTLSCKSDNGEVLANMKCNEQTHVIRCTESGFINNILLMFDTSEVAADCTAACPGGIVNFTIKGLLAFVNERIISQSYSATDVERNIK
notes: The C-terminal V5 and histidine tags were optionally cleaved with carboxypeptidase A; The atomic model covers residues 2330 to 2769; also called GC trimer; WT
**Q.** B1 was tested. Which “stoichiometry N” value [3] did it give?
**A.** The value was 3.
